The labels stand for the following.
B1: CPEB3 Ribozyme (parent)
chain: GGGGGCCACAGCAGAAGCGUUCACGUCGCGGCCCCUGUCAGAUUCUGGUGAAUCUGCGAAUUCUGCUGU

In this series the parent is B1. Nature of the series: self-cleavage, relative activity (ratio to wild type); higher = more cleavage; co-transcriptional.
Consider GGGGGCCACAGCAGAACCGUUCACGUCGCGGCCCCUGUCAGAUUCUGGUGAAUCUGCGAACUCUGCUGU [G17C U61C], for which the self-cleavage is 0.118.

Turning to GGGGGCCACAGCAGAACCGUUCACGUCGCGGCCCCUGUCAGAUUCUGGUGAAUCUGCGAAGUCUGCUGU [G17C U61G], the self-cleavage is 0.205.

Take GGGGGCCACAGCAGAACCGUCCACGUCGCGGCCCCUGUCAGAUUCUGGUGAAUCUGCGAAUUCUGCUGU [G17C U21C]: the self-cleavage was determined as 0.0625.

With GGGGGCCACAGCAGAACCGUGCACGUCGCGGCCCCUGUCAGAUUCUGGUGAAUCUGCGAAUUCUGCUGU [G17C U21G], the self-cleavage was determined as 0.229.

In the case of GGGGGCCACAGCAGAACCGUUCACGUCGCGGCCCCUGGCAGAUUCUGGUGAAUCUGCGAAUUCUGCUGU [G17C U38G], the self-cleavage came to 0.101.

Regarding GGGGGCCACAGCAGAACCGUUCACGUCGCGGCCCCUGCCAGAUUCUGGUGAAUCUGCGAAUUCUGCUGU [G17C U38C], the self-cleavage stood at 0.137.

With GGGGGCCACAGCAGAAUCGUUCACGUCGCGGCCCCUGUCAGAUUCUGGUGCAUCUGCGAAUUCUGCUGU [G17U A51C], the self-cleavage is 0.423.

As to GGGGGCCACAGCAGAACCGUUCACGUCGCGGCCCCUGUCAGAUUCUGGUGAAUCUGCGAAUUCUGCCGU [G17C U67C], the self-cleavage is 0.145.

For the variant GGGGGCCACAGCAGAACCGUUCACGUCGCGGCCCCUGUCAGAUUCUGGUGAAUCUGCGAAUUCUGCGGU [G17C U67G], the self-cleavage turned out to be 0.209.

With GGGGGCCACAGCAGAACCGUUCACGUCGCGGCCCCUGUCAGAGUCUGGUGAAUCUGCGAAUUCUGCUGU [G17C U43G], the self-cleavage was found to be 0.0986.

With GGGGGCCACAGCAGAACCGUUCACGUCGCGGCCCCUGUCAGAAUCUGGUGAAUCUGCGAAUUCUGCUGU [G17C U43A], the self-cleavage was 0.0954.

For the variant GGGGGCCACAGCAGAACCGUUCACGUCGCGGCCCCUGUCAGACUCUGGUGAAUCUGCGAAUUCUGCUGU [G17C U43C], the self-cleavage came to 0.111.

Take GGGGGCCACAGCAGAACCGGUCACGUCGCGGCCCCUGUCAGAUUCUGGUGAAUCUGCGAAUUCUGCUGU [G17C U20G]: the self-cleavage came out at 0.132.

Take GGGGGCCACAGCAGAACCGUUCACGUCGCGGCCCCUGUCAGAUUCUGGUGAAUCUGCGAAUGCUGCUGU [G17C U62G]: the self-cleavage came out at 0.201.

Take GGGGGCCACAGCAGAACCGUUCACGUCGCGGCCCCUGUCAGAUUCUGGUGAAUCUGCGAAUACUGCUGU [G17C U62A]: the self-cleavage was determined as 0.171.

Consider GGGGGCCACAGCAGAAUCGUUCACGUCGCGGCCCCUGUCUGAUUCUGGUGAAUCUGCGAAUUCUGCUGU [G17U A40U], for which the self-cleavage turned out to be 0.149.

For GGGGGCCACAGCAGAACCGUUCACGUCGCGGCCCCUGUCAGAUUCUGGUGAAUCUGCGAAUUCGGCUGU [G17C U64G], the self-cleavage was determined as 0.171.

Turning to GGGGGCCACAGCAGAACCGUUCACGUCGCGGCCCCUGUCAGAUUCUGGUGAAUCUGCGAAUUCCGCUGU [G17C U64C], the self-cleavage came out at 0.203.

Take GGGGGCCACAGCAGAACCGUUCACGUCGCGGCCCCUGUCAGAUUCUGGUGAAUCUGCGAAUUCAGCUGU [G17C U64A]: the self-cleavage stood at 0.112.

For the variant GGGGGCCACAGCAGAACCGUUCACGUCGCGGCCCCUGUCAGAUUCUGGGGAAUCUGCGAAUUCUGCUGU [G17C U49G], the self-cleavage came to 0.148.

Regarding GGGGGCCACAGCAGAACCGUUCACGUCGCGGCCCCUGUCAGAUUCUGGCGAAUCUGCGAAUUCUGCUGU [G17C U49C], the self-cleavage is 0.158.

Consider GGGGGCCACAGCAGAACCGUUCACGUCGCGGCCCCUGUCAGAUUCUGGAGAAUCUGCGAAUUCUGCUGU [G17C U49A], for which the self-cleavage was 0.149.

GGGGGCCACAGCAGAACCGUUCACGUCGCGGCCCCUGUCAGAUUCUGGUGAAUCUGCGAAUUCUGCUGG [G17C U69G]: the self-cleavage was determined as 0.303.

For GGGGGCCACAGCAGAACCGUUCACGUCGCGGCCCCUGUCAGAUUCUGGUGAAUCUGCGAAUUCUGCUGA [G17C U69A], the self-cleavage is 0.246.

On to GGGGGCCACAGCAGAACCGUUCACGUCGCGGCCCCGGUCAGAUUCUGGUGAAUCUGCGAAUUCUGCUGU [G17C U36G], for which the self-cleavage was determined as 0.163.

Take GGGGGCCACAGCAGAACCGUUCACGUCGCGGCCCCAGUCAGAUUCUGGUGAAUCUGCGAAUUCUGCUGU [G17C U36A]: the self-cleavage is 0.18.

As to GGGGGCCACAGCAGAACCGUUCACGUCGCGGCCCCUGUCAGAUUCUGGUGAAUCCGCGAAUUCUGCUGU [G17C U55C], the self-cleavage turned out to be 0.138.

In the case of GGGGGCCACAGCAGAACCGUUCACGUCGCGGCCCCUGUCAGAUUCUGGUGAAUCGGCGAAUUCUGCUGU [G17C U55G], the self-cleavage stood at 0.062.

In the case of GGGGGCCACAGCAGAACCGUUCACGCCGCGGCCCCUGUCAGAUUCUGGUGAAUCUGCGAAUUCUGCUGU [G17C U26C], the self-cleavage turned out to be 0.145.

For GGGGGCCACAGCAGAACCGUUCACGGCGCGGCCCCUGUCAGAUUCUGGUGAAUCUGCGAAUUCUGCUGU [G17C U26G], the self-cleavage was determined as 0.175.

As for GGGGGCCACAGCAGAACCGUUCACGACGCGGCCCCUGUCAGAUUCUGGUGAAUCUGCGAAUUCUGCUGU [G17C U26A], the self-cleavage worked out at 0.156.

For the variant GGGGGCCACAGCAGAACCGUUCACGUCGCGGCCCCUGUCAGAUUCUGGUGAAGCUGCGAAUUCUGCUGU [G17C U53G], the self-cleavage turned out to be 0.126.

As to GGGGGCCACAGCAGAACCGUUCACGUCGCGGCCCCUGUCAGAUUCCGGUGAAUCUGCGAAUUCUGCUGU [G17C U46C], the self-cleavage was 0.119.

Take GGGGGCCACAGCAGAACCGUUCACGUCGCGGCCCCUGUCAGAUUCAGGUGAAUCUGCGAAUUCUGCUGU [G17C U46A]: the self-cleavage was 0.122.

As for GGGGGCCACAGCAGAACCGUUCACGUCGCGGCCCCUGUCAGAUUCGGGUGAAUCUGCGAAUUCUGCUGU [G17C U46G], the self-cleavage amounted to 0.101.

Consider GGGGGCCACAGCAGAAUCGUUCACGUCGCGGCCCCUGUCAGCUUCUGGUGAAUCUGCGAAUUCUGCUGU [G17U A42C], for which the self-cleavage turned out to be 0.299.

Consider GGGGGCCACAGCAGAAUCGUUCACGUCGCGGCCCCUGUCAGUUUCUGGUGAAUCUGCGAAUUCUGCUGU [G17U A42U], for which the self-cleavage is 0.334.

Take GGGGGCCACAGCAGAAUCGUUCGCGUCGCGGCCCCUGUCAGAUUCUGGUGAAUCUGCGAAUUCUGCUGU [G17U A23G]: the self-cleavage worked out at 0.331.

Turning to GGGGGCCACAGCAGAAUCGUUCCCGUCGCGGCCCCUGUCAGAUUCUGGUGAAUCUGCGAAUUCUGCUGU [G17U A23C], the self-cleavage is 0.462.

For the origin of these results see the RNAGym collection of RNA variant scans (doi:10.7554/elife.80360).
